Measured values: a protein production outcome set (Wang et al. 2014)

Experiment: label from the status in PepcDB records
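Further: failed if final PepcDB status was selected cloned or expressed and not failed if soluble or beyond.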

MHLPHFALSSVLSLTLCAIPNLGFASSNQTEDSTQARPTWLRDIALSPDGQKIAFTYAGQIWLVPAQGGDAVALTESGVYSETPIWSPDSQSIAFTADRYGLGDVFILSIQGGESRRLTYHGAKDIPYAFSADGQQLYFSSRRLGDDKANANVKQGSFMAQLYSVPAAGGREQRVLPIAISDLAISPSHSDILYTNQPSDEQPWRKGALSDATRDIWQWSPLTGKHTQITTFRGEDRNPVWSADGSSMYYLSEQAGSFNVWQQRFDGSEPVQITDHQKLPVRFLSASLQGDLAYGFDGEIWRLKAGAKQAEKVPVSIRRSAMPDGRHNVNFNLEATEMVVAPNAAEVAIVARGDVYVVSLLSGLTQRITDTPEAERDVSFSSDGYRLIYASEREGSWNLYQSYVNDGGKSFSSSLDIIEEPVLTTEQDVIQPLYSPNLKRIVYRENRNTLKVYDIEQDKTYTLLDAHALYSYFDKDLSYQWSPDSEYIVTRDRAMSNGDIQLLKFDGSEAPINLSQSGFSEFAPQFSADGQWVYWLTDAKGLRDIDDMVVQYDVYGVALNREAKFNFNKTQEQLWLEEEIAAEKNLGPGQNPPAELTVVENKGLKQRTMRMTPTSLNIIFKHLTHDNQALIIAYQLGDSVQISEINLRSGEMTALFNRLSEDAALLAMASDDASLLIMGEHGIENLNVLTGESKFVRYEAKANFDFRAEIRLLV
protein production: failed

GAPGPCGLARQNSTSLTGKPGALPANLDDMKVAELKQELKLRSLPVSGTKTELIERLRAYQDQISPVPGAPKAPAATSILHKAGEVVVAFPAARLST
protein production: failed

MDRLNQIQIILVETSLSANIGSAARAMKTMGLSNLRLVRPKNPLDEQATALAAGAKNILDNAQIFNTFDAAIADCQLIIGTSARLRHLQSTLVEPRECGKLIINNTNQHKIALIFGRERIGLTNEELLKCHYHLNVPTNPEYESLNLAMAVQLACYEIRMAWLELQKKPIIQPLTEEKNYPTAAAMAHFFDHTERLYKELGFIRNDAVMLKLRRLYQRAKLEENELNLLRGMLTAVEKHRIS
protein production: failed

MRGNDETVLAQALDWLRQGRRVALLTVLGTYGASPRPPGALAAIRDDGVICGSVSGGCVEDDLRREIAEGGVFGAAPSARVRSFGVSVEERQRYRLPCGNSLRVAVETMPDPAQLEALLAAVRQRRCLWRRVDYRDGAAHLLESGPPAAFAEDEAGFSALHGPLWRLLIIGGAELGRYLAQIALTLDYAVTVCEPREEYAAGWEPDGVALSAQMPDDLVLAFGCDERTAVVAVTHDPKLDDLALMEALRLPCHYVGALGSATTTMKRKARLAEHFGLTPAQLDRLHGPVGLPIGSRTPAEIAVSIAADLIASRSACHREGVHGEEGSCRA
protein production: failed

MKNTPIERNVIDETINEFQIVDFSKATIREVKAIASKAEAVSGVEFIKMEMGVPGLPASAVGVKAEIEALQNGIASLYPDINGLPELKKEASDFIKAFINVDLSPEGCVPVTGSMQGTFASFLTCSQCDEKKDTILFIDPGFPVQKQQLVVMGQKYETFDVYDYRGDKLKEKLESYLRKGNISAIIYSNPNNPSWICLKDEELRIIGELATQYDVIVLEDLAYFAMDFRQDLSTPYQAPFQPSVAHYTDNYVLLISGSKAFSYAGQRIGVSCISDKLYHRSYPGLTKRYGGGTFGTVFIHRVLYALSSGTSHSAQYAMAAMLKAANEGQYNFLSEVKVYGDRAQKLKEIFLRHGFYLVYDNDLGDPIADGFYFTIGYPGMTSGELAKELMYYGVSAISLVTTGSHQEGLRACTSFIKDHQYAQLDERMKLFAEHHPIA
protein production: not failed

MQQALAFVARHGRLGLMVGLGAGLALPGLAAVMRPWIPQLVALLLFLTAFRIGPVDAAGSLADLTRTARRVLVLQLALPILFLLGLRLLGLPVTPLALVLALVLAAPSVTGSANFTILLAQDPAPALRLLILGTALLPLTAIPVFWLLPAFGDPAEVFGAALRLLGVILLAAGCGFALRHWGARQLSDLNRRAMDGLTVIALAVIVIALMSAVRPAMTERPAELAFWLLAAFAINLGGQTLCYLTLRATGGADPVPTSIVAGNRNFALFFVALPSEVTEPLLIFLGCYQFPMYLTPTLMRRLYDPV
protein production: failed

MSVPQGARDVEAIRAIGPDQWQTVPAGQTLNRGFSDDEFWLQVRVPAQPANRVLEVGYPLLDEVSVYWELDGRIIESHHTGDTRPFDSRPIVHRNFVFLVPSNTEPVTAWIRVQTQGSVQVPVAVTPSAEFLANEQISYGWQTMFLGIVVALALYNLFLFLIVRHQTYLWYVLTVVCSGAVQLNFNGLLFQWFWPDVPWINRYFTVPVVSAALIAAIVFTMKFLLVKSYSRWGYRILQALLAVNLLGLIYGFLGSYQVGIIWISSLAAFATPVAWLIGINVWRRGQILGGFYVLAWTPLLLGHLVLAVSKLGWIPRSPFTELAPQAGVAVEVILLSFALAYRINMERRRRQQAQEHALDIQRQANLTLESRVRERTEELEQANEQLRAISLTDGLTHVANRRRFDEKLETEWNRALRHEHELSLILLDIDHFKQVNDRFGHLVGDDCLVALASILSDEVQRSGDLVARYGGEEFAILLPTTDVAGAQQVAERMRLSVARTPVNSGEHMSPVSLTISLGVATLTPNRQSDCQELIRRADEALYAAKSDGRNRVVVWHPKAVAPTTG
protein production: failed

LEAPRDLEAKEVTPRTALLTWTEPPVRPAGYLLSFHTPGGQTQEILLPGGITSHQLLGLFPSTSYNARLQAMWGQSLLPPVSTSFTTGGLRI
protein production: not failed

VILSATRPFVCSRAPLGLSESAFMPLNGRTKMITKMPFRLVSLSCLELHRASSFWDIGFCTGSVSIEAKLNFPHLHITAFEIRPEGAELMPVNSRRFGAPGIAYRIGDFMEEDISSLAPPDAVFIGGHGGRLVEMIAKVHSVMTKGGLLVFNSVSEESRHLFLTGIEACGMELLSSIRLTADGNNPIDILQARKKE
protein production: failed

MPQTPPFPVMYGSTNGYNKNLYKAKEEDYEGLYYHDNNLISGSLEALIEHLVPTVAYYPDRTYIFTFLLSSRLFLHPYELMSKVCHLCVDQQRLSDPQADKARVRKIAPKILQLLTEWTETFPYDFRDERMMKSLKELTHRLSTGEDLYRKAVQQMTQTLIRKLTTLSQYEEALAKINSSVTDRLTVLKTKPQSIQRDILTICNDPFTLAQQLTHIELERLSYIGPEEFVQAFVQKDPLDNDKNCFSDHKKASNLEAYVEWFNRLSYLVATEICMPVKKKHRARVIEFFIDVARECFNIGNFNSLMAIITGMNMSPVSRLKKTWAKVKTAKFDILEHQMDPSSNFYNYRTALRGATQRSITAHSSREKIVIPFFSLLIKDIYFLNEGCANRLPNGHVNFEKFWGLAKQVTEFMTWKKVECPFDRDRKILQYLLTAPVFSEDALYLASYESEGPENNMEKDRWKSLRSSLLNRT
protein production: not failed

MDKQSERNESKLFISNMVESAIRIGLIFVLLMFTYDIIRPFILPVIWGAIIAVALLPLTKKLQRAYGGRRGLAATTIVLLGIALLVTPLVMVSGSIVDGATHALDVLQNGQVKIPGPKASVADWPLVGDKLYEVWTLFATNLEQAIQTFMPQIKSALTSLLGMVGGVLGSLLLSILSLAIAAGFMTYSESLASGLQTIAIRTAGENAKSWTTLIAATIKSVLLGVVGVAAIQALLIGAGFFVFGVPAAGLLTLILMILCIAQLPALLAVLPVIGYMYMTQDSTTATMFTVWAVVGALSENLLKPMFMGRGVDVPMPVILLGAIGGMLFYGIVGLFLGAVILAIWYELFVWWLSIEKAQQQEEMAELKEEEEQTESGHGAGI
protein production: not failed

MQTPSKKYVVDIWSDFVCPWCWIAKRRFENALNRSGMQDDVQVNVRAYRLAANQAPEPMIGALKRKLGNPASADSMMSTVSKYGRADGLDYRFDTMMFGDTADAHILVKAVEDTAVKKRLVEALYEQSTSHGRSLFDRSSLEAIAREVGVSDESIQLAWSSVELRNEMKDDESFAAQLGSGVPLFVFDSSFSVSGAQPDAVFLEALNKMVANSNPEDSSMMGQVCSIDGCKV
protein production: not failed

MVNILSLFTLAALWGGSFLFVRIAANPLGPAVLIEVRVAFAALTLLVVSFFLKKSLRFMSNIKHFLILGLFNSALPFLLFAYSAQVLNVSTLAVLNSTAPIWGAVIGAIWTRTRLSKDVIFGLILGMIGVSVLVGWEAINIGDEAIIPIITALIGAFSYGVATNYAKNAPSVEPFNNAHGSMWASVLLVLPLVPFMPVREEVTSDIIAAVFALGAVCTGLAYLLYFRLIKELGASSALTVTFIIPVFGILWGYLFLGETVGVNAIIGTILVVIGTMFVTGFASKFMSKKCV
protein production: failed

MTETESKWDEKLKRFFKDYYWNEILQLANEYPDQRSLAVDFTDIEKFDRDLSREFLEHPGELISAAEAALKEIDLPVEKNLEQAHVRVIKIPNRIPIRELRSKHLTRFVAIEGMIRKATEVRPRITKAAFQCLRCGHLTIVEQNSFKFEEPFAGCEEETCGKKGPFKVSIEDSTFIDAQKLQIQESPENLKGGSQPQSLEVDSEDDLTGNVTPGDRVIINGVLKSRQRTLKDGKSTFYDLILEANSIERLDKDYDELEISAEEEEQILELSRDPAIYEKIISSIAPSIYGYEDIKEALALQLFSGVVKNLPDGSRTRGDIHMMLVGDPGIAKSQLLRYVVKLSPRGVFASGRSASASGLTAAAVKDDMNDGRWTIEGGALVMADMGVAAVDEMDKMRTEDKSALHEAMEQQTISIAKAGIIATLKSRCALLGAANPKYGRFDRYEGLADQINMPPALLSRFDLIFVLLDTPNHSLDSRIANHILQSHYAGELSEQRQKLPGSTISEEFVDAEMEIIEPVIAPEFMRKYIAFARKNVYPVMEEDTRHHLINFYTDLRRSGEGKNTPVPVTARQLEALVRLSEASARVRLSNIVTLEDAKRTIRIVMNCLKNVGVDPETGALDADILASGTSMSQRNKIKLLKDIIKKVSDRHPGSKAPLEEVYAEAESEHGIDRGHAEEYIKKMKQRGDILSPDQTHIRLIN
protein production: failed

MAKVCYFTGRKTVSGNNRSHAMNKTKRVVKPNLQKVTVLIDGKPKKVWASARALKSGKVERVLEHHHHHH
protein production: failed

SSLLDGLASSPRAPLQSSKARMKKLPKKSQNEKYRLKYLRLRKAAKATVFENAAICDEIARLEEKFLKAKEERRYLLKKLLQLQALTEGEVQAAAPSHSSSLPLTYGVASSVGTIQGAGPISGPSTGAEEPFGKKTKKEKKEKGKENNKLEVLKKTCKKKKMAGGARKLVQPIALDPSGRPVFPIGLGGLTVYSLGEIITDRPGFHDESAIYPVGYCSTRIYASMKCPDQKCLYTCQIKDGGVQPQFEIVPEDDPQNAIVSSSADACHAELLRTISTTMGKLMPNLLPAGADFFGFSHPAIHNLIQSCPGARKCINYQWVKFDVCKPGDGQLPEGLPENDAAMSFEAFQRQIFDEDQNDPLLPGSLDLPELQPAAFVSSYQPMYLTHEPLVDTHLQHLKSPSQGSPIQSSD
protein production: not failed

MAIRDAFGLTFSGATETGFTPYSQAVRELLCFIGDPVASVDRAILADPGFVMAHVFKGYLFGLATERDATAVARACHEAALPLAATTREEAHVLALGHLANGRWHDAARILEDVAIETPLDALALQVGHQIDFFTGNARMLRDRIARALPSWQSGMPGYHAILGMQAFGLEEMGDYTRAEKLGRTAVEIEPRDGWAQHAVAHVMEMQSRQRDGIVWMRANPEAWTKESFLQVHNWWHLALFHYDLGEIDQVLALYDGPIYGAPSAMALNMVDASALLWRLHLGGIDVGDRWAALAANWPKAGAGDYAFNDAHAMMAFVGAGLDGPALALLEAQREAMHGSGDNAAFTRDVGHPLTLAIKAFGEANYTEAVQLIRPIRAIANRFGGSHAQRDVIDLTLIEAALRAGDRALAGALTAERSMARPDSPLSVLLARRAADLSEN
protein production: failed

MAATASPQPLATEDADAENSSFYYYDYLDEVAFMLCRKDAVVSFGKVFLPVFYSLIFVLGLSGNLLLLMVLLRYVPRRRMVEIYLLNLAISNLLFLVTLPFWGISVAWHWVFGSFLCKMVSTLYTINFYSGIFFISCMSLDKYLEIVHAQPYHRLRTRAKNLLLATIVWAVSLAVSIPDMVFVQTHENPKGVWNYHADFGGHGTIWKLFLRFQQNLLGFLLPLLGMIFFYSRIGCVLVRLRPAGQGRALKIAAALVVAFFVLWFPYNLTLFLHTLLDLQVFGNCEVSQHLDYALQVTESIAFLHCCFSPILYAFSSHRFRQYLKAFLAAVLGWHLAPGTAQASLSSCSESSILTALEEMTGMNDLGERQSENYPNKEDVGNKSA
protein production: failed
